Results on 4 molecules are retold here after article PMC9198273.

Test [1] has as its target CXCR3-B C-terminally fused with SmBiT (human) (UniProt P49682).
In test [2] the target is CXCR3-A C-terminally fused with SmBiT (human) (UniProt P49682).
The target in test [3] is untagged CXCR3-A (human) (UniProt P49682).
Test [4] has as its target CXCR3-B C-terminally fused with SmBiT (human) (UniProt P49682). The source holds these as a separate data set.
Test [5] deals with CXCR3-A C-terminally fused with SmBiT (human) (UniProt P49682). The source holds these as a separate data set.
The target of test [6] is CXCR3-B -30, C-terminally fused with SmBiT (human) (UniProt P49682).
The target of test [7] is CXCR3-B -40, C-terminally fused with SmBiT (human) (UniProt P49682).

Turning to “CXCL10 (from UniProt P02778 22-98) (ligand)”, the Table 1: β-arrestin-2 recruitment to CXCR3-B, EC50 of the chemokine (NanoBiT-based assay) in test [1] turned out to be 59.2 nM. In test [2], this molecule returned a Table 1: miniGi recruitment to CXCR3-A, EC50 of the chemokine (NanoBiT-based assay) of 18.2 nM; a Table 1: miniGq recruitment to CXCR3-A, EC50 of the chemokine (NanoBiT-based assay) of 22.2 nM; a Table 1: β-arrestin-1 recruitment to CXCR3-A, EC50 of the chemokine (NanoBiT-based assay) of 17.8 nM; a Table 1: β-arrestin-2 recruitment to CXCR3-A, EC50 of the chemokine (NanoBiT-based assay) of 2.9 nM. In test [2], this molecule displayed a Table 2: β-arrestin-1 recruitment to CXCR3-A, EC50 of the chemokine (NanoBiT-based assay, HEK293T) of 10.7 nM. In test [3], this molecule registered a Table 1: Gi2 dissociation in CXCR3-A-expressing cells, EC50 of the chemokine (NanoBRET G protein activity sensor) of 0.9 nM; a Table 1: Go1 dissociation in CXCR3-A-expressing cells, EC50 of the chemokine (NanoBRET G protein activity sensor) of 1.9 nM; a Table 1: Gq dissociation in CXCR3-A-expressing cells, EC50 of the chemokine (NanoBRET G protein activity sensor) of 2.3 nM; a Table 1: cAMP, EC50 of the chemokine for the reduction of intracellular cAMP in CXCR3-A-expressing cells (GloSensor) of 14.1 nM.

B1: CXCL9 (ligand)
chain: TPVVRKGRCSCISTNQGTIHLQSLKDLKQFAPSPSCEKIEIIATLKNGVQTCLNPDSADVKELIKKWEKQVSQKKKQKNGKKHQKKKVLKVRKSQRSRQKKTT
On to B1, for which the Table 1: β-arrestin-2 recruitment to CXCR3-B, EC50 of the chemokine (NanoBiT-based assay) in test [1] came to 100000 nM. Also, in test [2], the Table 1: β-arrestin-2 recruitment to CXCR3-A, EC50 of the chemokine (NanoBiT-based assay) amounted to 16000 nM. In test [3], the Table 1: Gi2 dissociation in CXCR3-A-expressing cells, EC50 of the chemokine (NanoBRET G protein activity sensor) is 19.9 nM; the Table 1: Go1 dissociation in CXCR3-A-expressing cells, EC50 of the chemokine (NanoBRET G protein activity sensor) turned out to be 77.8 nM; the Table 1: Gq dissociation in CXCR3-A-expressing cells, EC50 of the chemokine (NanoBRET G protein activity sensor) turned out to be 56 nM; the Table 1: cAMP, EC50 of the chemokine for the reduction of intracellular cAMP in CXCR3-A-expressing cells (GloSensor) is 21.9 nM.

B2: CXCL11 (ligand)
chain: FPMFKRGRCLCIGPGVKAVKVADIEKASIMYPSNNCDKIEVIITLKENKGQRCLNPKSKQARLIIKKVERKNF
In turn, B2 came in with a Table 3: β-arrestin-1 recruitment to CXCR3-B, EC50 of CXCL11 (NanoBiT-based assay) in test [4] of 23.9 nM. Moreover, in test [5], the Table 3: miniGi recruitment to CXCR3-A, EC50 of CXCL11 (NanoBiT-based assay, HEK293T) amounted to 18.2 nM and the Table 3: β-arrestin-1 recruitment to CXCR3-A, EC50 of CXCL11 (NanoBiT-based assay) is 6.7 nM. In test [6], this molecule came in with a Table 3: miniGi recruitment to CXCR3-B -30, EC50 of CXCL11 (NanoBiT-based assay, HEK293T) of 27.2 nM. Also, the Table 3: miniGi recruitment to CXCR3-B -40, EC50 of CXCL11 (NanoBiT-based assay, HEK293T) in test [7] was determined as 32.7 nM. Also, in test [1], the Table 1: β-arrestin-1 recruitment to CXCR3-B, EC50 of the chemokine (NanoBiT-based assay) came to 49.4 nM; the Table 1: β-arrestin-2 recruitment to CXCR3-B, EC50 of the chemokine (NanoBiT-based assay) came out at 12.4 nM; the Table 2: β-arrestin-1 recruitment to CXCR3-B, EC50 of the chemokine (NanoBiT-based assay, HEK293T) amounted to 51.6 nM. In test [2], the Table 1: miniGi recruitment to CXCR3-A, EC50 of the chemokine (NanoBiT-based assay) was found to be 12.4 nM; the Table 1: miniGq recruitment to CXCR3-A, EC50 of the chemokine (NanoBiT-based assay) was 25.9 nM; the Table 1: β-arrestin-1 recruitment to CXCR3-A, EC50 of the chemokine (NanoBiT-based assay) was 15.8 nM; the Table 1: β-arrestin-2 recruitment to CXCR3-A, EC50 of the chemokine (NanoBiT-based assay) is 2.9 nM. In test [2], this molecule yielded a Table 2: β-arrestin-1 recruitment to CXCR3-A, EC50 of the chemokine (NanoBiT-based assay, HEK293T) of 9.6 nM. Moreover, in test [3], the Table 1: Gi2 dissociation in CXCR3-A-expressing cells, EC50 of the chemokine (NanoBRET G protein activity sensor) worked out at 1.2 nM; the Table 1: Go1 dissociation in CXCR3-A-expressing cells, EC50 of the chemokine (NanoBRET G protein activity sensor) was determined as 1.8 nM; the Table 1: Gq dissociation in CXCR3-A-expressing cells, EC50 of the chemokine (NanoBRET G protein activity sensor) was 0.4 nM; the Table 1: cAMP, EC50 of the chemokine for the reduction of intracellular cAMP in CXCR3-A-expressing cells (GloSensor) was 6.3 nM.

B3: CXCL11P2G (ligand)
chain: FGMFKRGRCLCIGPGVKAVKVADIEKASIMYPSNNCDKIEVIITLKENKGQRCLNPKSKQARLIIKKVERKNF
For B3, the Table 2: β-arrestin-1 recruitment to CXCR3-B, EC50 of the chemokine (NanoBiT-based assay, HEK293T) in test [1] stood at 153 nM. Moreover, the Table 2: β-arrestin-1 recruitment to CXCR3-A, EC50 of the chemokine (NanoBiT-based assay, HEK293T) in test [2] came out at 14.8 nM.
